Experiment [1] addresses T1, recombinant human IL1RAP ECD (human, UniProt Q9NPH3 21-367).
T1 construct: His-tagged; also called hIL1RAP-ECD; rhuIL1RAP
T1 sequence: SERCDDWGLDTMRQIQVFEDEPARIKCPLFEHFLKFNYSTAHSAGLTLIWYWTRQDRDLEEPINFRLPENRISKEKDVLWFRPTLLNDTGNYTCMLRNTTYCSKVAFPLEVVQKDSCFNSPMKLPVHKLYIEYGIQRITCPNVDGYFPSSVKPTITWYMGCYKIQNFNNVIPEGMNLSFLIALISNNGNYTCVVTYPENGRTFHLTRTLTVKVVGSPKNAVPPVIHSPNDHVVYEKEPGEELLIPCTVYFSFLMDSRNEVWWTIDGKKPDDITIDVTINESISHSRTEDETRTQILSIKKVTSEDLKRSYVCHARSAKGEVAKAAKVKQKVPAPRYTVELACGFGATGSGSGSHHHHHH
Description: SPR (ProteOn).

The target of experiment [2] is T1, recombinant human IL1RAP ECD. Description: SPR; KD against parent IAPB4. (In general: SPR reads the build-up and loss of mass on a sensor chip optically.)
The target is the same in experiment [3]. Description: SPR, summary.
In experiment [4] the target is T2, mouse IL1RAP ECD displayed on HEK-293F cells (pDisplay) (mouse, UniProt Q61730 21-367).
T2 sequence: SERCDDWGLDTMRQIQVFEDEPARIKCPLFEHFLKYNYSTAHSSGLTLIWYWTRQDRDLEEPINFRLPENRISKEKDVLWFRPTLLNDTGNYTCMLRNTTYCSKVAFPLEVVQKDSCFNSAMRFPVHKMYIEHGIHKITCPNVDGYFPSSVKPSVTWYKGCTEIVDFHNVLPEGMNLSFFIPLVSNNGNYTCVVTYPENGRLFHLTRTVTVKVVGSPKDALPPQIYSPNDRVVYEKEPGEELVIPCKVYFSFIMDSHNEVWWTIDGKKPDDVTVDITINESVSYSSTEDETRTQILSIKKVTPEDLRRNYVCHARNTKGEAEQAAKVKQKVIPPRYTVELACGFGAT
Description: MSD cell binding, HEK-293F Mouse clone 5 cells displaying mouse IL1RAP ECD. How it is done: (§1) Cells were immobilized and IL1RAP antibody samples were assayed in triplicate. Briefly, expression supernatants of purified IL1RAP antibodies were normalized to 10 μg/mL. 5000 cells per well were plated into a 384 well plate (MA6000, cat. L21XB, MSD) and allowed to adhere for 2 hr. Cells were then blocked with 20% FBS in PBS (Gibco) for 15 mins. Antibody supernatants were then added and left at RT for 1 hr. Cells were washed 3 times with PBS and a ruthenium labeled secondary antibody (Mesoscale Discovery) was then added at 2 μg/mL and incubated for 1 hour at room temperature. A further washing step was then applied and 35 μL per well of 2×MSD Read buffer T (surfactant free) was then added and incubated for 5-30 minutes for detection. Plates were then read using Sector Imager 2400 (MSD). Data was normalized to controls and graphed using GraphPad Prism Version 5. A positive binder was determined to be a hit with a signal 3× greater than parental cell line background.
(§2) The MSD cell binding assay described in Example 4 was used to assess IL1RAP binding.

A further experiment concerns the target T3, human FcRn (human, UniProt P55899 24-297; P61769 21-119, limits assumed).
T3 construct: GST-tagged
The experiment can be described thus: AlphaScreen competition, human FcRn (n=1); displaced: biotinylated control mAb B21M WT IgG1 (m27); pH 6.0. From the text: (§3) Measurements were made using an AlphaScreen™ assay (Amplified Luminescent Proximity Homogeneous Assay (ALPHA), PerkinElmer, Wellesley, Mass.), a bead-based luminescent proximity assay. Laser excitation of a donor bead excites oxygen, which if sufficiently close to the acceptor bead generates a cascade of chemiluminescent events, ultimately leading to fluorescence emission at 520-620 nm.
For orientation: Alpha assays give light when donor and acceptor beads are brought close together.

Experiment [5] concerns the target T4, human IL1RAP on cells (endogenous) (human, UniProt Q9NPH3 21-570).
T4 sequence (looked up): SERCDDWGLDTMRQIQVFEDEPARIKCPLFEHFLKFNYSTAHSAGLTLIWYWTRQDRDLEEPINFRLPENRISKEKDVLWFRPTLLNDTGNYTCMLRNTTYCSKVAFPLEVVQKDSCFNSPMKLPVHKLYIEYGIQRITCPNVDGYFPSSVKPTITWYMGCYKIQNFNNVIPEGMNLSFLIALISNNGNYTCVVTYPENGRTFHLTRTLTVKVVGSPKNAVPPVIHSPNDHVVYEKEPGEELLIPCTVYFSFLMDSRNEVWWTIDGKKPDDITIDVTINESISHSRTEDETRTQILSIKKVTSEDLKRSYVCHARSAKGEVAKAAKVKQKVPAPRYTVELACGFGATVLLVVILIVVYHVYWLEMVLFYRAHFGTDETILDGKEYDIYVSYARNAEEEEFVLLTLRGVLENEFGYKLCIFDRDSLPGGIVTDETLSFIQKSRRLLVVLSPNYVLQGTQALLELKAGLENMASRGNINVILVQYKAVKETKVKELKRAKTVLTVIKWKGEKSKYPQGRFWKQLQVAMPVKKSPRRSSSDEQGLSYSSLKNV
The experiment can be described thus: cell-based or functional assay.

In experiment [6] the target is T5, cyno IL1RAP ECD displayed on HEK-293F cells (pDisplay) (cynomolgus monkey, UniProt P59822 21-367 (rhesus entry)).
T5 sequence: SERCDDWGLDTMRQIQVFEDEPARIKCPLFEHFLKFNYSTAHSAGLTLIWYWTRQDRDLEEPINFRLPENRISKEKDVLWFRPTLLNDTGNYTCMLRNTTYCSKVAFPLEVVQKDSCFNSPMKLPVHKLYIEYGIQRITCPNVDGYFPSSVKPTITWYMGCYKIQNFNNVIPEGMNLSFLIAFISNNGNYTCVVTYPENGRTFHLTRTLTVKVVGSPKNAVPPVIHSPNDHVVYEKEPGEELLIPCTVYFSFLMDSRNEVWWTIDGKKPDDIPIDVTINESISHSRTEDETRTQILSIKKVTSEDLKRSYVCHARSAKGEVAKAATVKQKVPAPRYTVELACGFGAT
The experiment can be described thus: MSD cell binding, HEK-293F Cyno (clone CB8) cells displaying cyno IL1RAP ECD. As to the method:
as §1, §2

The target of a further experiment is T6, human FcγRI (human, UniProt P12314 16-292, limits assumed).
T6 construct: GST-tagged, on glutathione acceptor beads; also called FcγRT [sic]
Description: AlphaScreen competition, human FcγRI (n=1); displaced: biotinylated control mAb B21M hIgG1 AlaAla; pH 7.2.
Text: as §3

For experiment [7], the target named is T7, rat IL1RAP ECD displayed on HEK-293F cells (pDisplay) (rat, UniProt Q63621 21-367).
T7 sequence: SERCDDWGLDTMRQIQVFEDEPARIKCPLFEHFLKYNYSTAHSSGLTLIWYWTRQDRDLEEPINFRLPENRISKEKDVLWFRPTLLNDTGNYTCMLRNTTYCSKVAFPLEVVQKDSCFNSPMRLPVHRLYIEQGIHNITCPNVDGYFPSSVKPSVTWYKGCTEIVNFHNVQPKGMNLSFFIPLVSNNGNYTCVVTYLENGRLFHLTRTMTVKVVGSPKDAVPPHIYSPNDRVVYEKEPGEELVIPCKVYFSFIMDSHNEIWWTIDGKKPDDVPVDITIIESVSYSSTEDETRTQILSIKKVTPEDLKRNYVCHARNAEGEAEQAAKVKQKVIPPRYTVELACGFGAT
Description: MSD cell binding, HEK-293F Rat clone 1 cells displaying rat IL1RAP ECD. How it is done:
as §1, §2

For experiment [8], the target named is T8, human IL1RAP ECD displayed on HEK-293F cells (pDisplay) (human, UniProt Q9NPH3 21-367).
T8 construct: also called Human clone HE2 IL1RAP FL-ECD cell line
T8 sequence: T5 sequence with F183L, P273T, T326K
Description: MSD cell binding, HEK-293F Human (clone HE2) cells displaying human IL1RAP ECD. How it is done: as §1, §2

Numbering of substitutions follows the chain as printed. Numbers in names are those of the source.

As a reminder, the Kd is a measure of binding affinity in units of concentration. A word on the koff: it is the rate constant with which the complex falls apart. Broadly, the kon is the second-order rate constant of association. As a reminder, the EC50 (read off the curve) is the concentration giving half of the maximal effect. Higher therefore signals lower potency in that assay.

B1: IAPB65 (antibody, human IgG4 S228P, kappa, F234A L235A, V domains shown)
VH: QVQLVQSGAEVKKPGSSVKVSCKASGGTFSSYAISWVRQAPGQGLEWMGGISAIFGTANYAQKFQGRVTITADESTSTAYMELSSLRSEDTAVYYCARHLHNAIHLDYWGQGTLVTVSS
VL: EIVLTQSPATLSLSPGERATLSCRASQSVSNFLAWYQQKPGQAPRLLIYGASNRATGIPARFSGSGSGTDFTLTISSLEPEDFAVYYCQQGKHWPWTFGQGTKVEIKR
notes: IgG4-PAA; whole chains; also called IAPB4-HC-G103A; IgG4-PAA, B4 mutant
On to B1, for which, in experiment [1], the Kd amounted to 10.4 nM, the off-rate constant (koff) was 0.00341 s⁻¹ and the kon was 329000 M⁻¹ s⁻¹. Besides, in experiment [2], the “Fold Different from parent” value came to 2.2 fold. For the same molecule, the dissociation constant Kd in experiment [3] worked out at 10.4 nM.

B2: IC3B18 (bispecific antibody, human IgG4 S228P, lambda, F234A L235A)
heavy 1: EVQLVESGGGLVQPGGSLRLSCAASGFTFNTYAMNWVRQAPGKGLEWVARIRSKYNNYATYYAASVKGRFTISRDDSKNSLYLQMNSLKTEDTAVYYCARHGNFGNSYVSWFAYWGQGTLVTVSSASTKGPSVFPLAPCSRSTSESTAALGCLVKDYFPEPVTVSWNSGALTSGVHTFPAVLQSSGLYSLSSVVTVPSSSLGTKTYTCNVDHKPSNTKVDKRVESKYGPPCPPCPAPEAAGGPSVFLFPPKPKDTLMISRTPEVTCVVVDVSQEDPEVQFNWYVDGVEVHNAKTKPREEQFNSTYRVVSVLTVLHQDWLNGKEYKCKVSNKGLPSSIEKTISKAKGQPREPQVYTLPPSQEEMTKNQVSLTCLVKGFYPSDIAVEWESNGQPENNYKTTPPVLDSDGSFLLYSKLTVDKSRWQEGNVFSCSVMHEALHNHYTQKSLSLSLGK
light 1: QTVVTQEPSLTVSPGGTVTLTCRSSTGAVTTSNYANWVQQKPGQAPRGLIGGTNKRAPGTPARFSGSLLGGKAALTLSGVQPEDEAEYYCALWYSNLWVFGGGTKLTVLGQPKAAPSVTLFPPSSEELQANKATLVCLISDFYPGAVTVAWKADSSPVKAGVETTTPSKQSNNKYAASSYLSLTPEQWKSHRSYSCQVTHEGSTVEKTVAPTECS
heavy 2: not shown
light 2: QSALTQPRSVSGSPGHSVTISCTGTSSDVGDYNYVSWYQQRPGKVPKLLIYDVSKRPSGVPDRFSGSKSGNTASLTISGLQAEDEAIYFCASYAGNYNVVFGGGTKLTVLGQPKAAPSVTLFPPSSEELQANKATLVCLISDFYPGAVTVAWKADSSPVKAGVETTTPSKQSNNKYAASSYLSLTPEQWKSHRSYSCQVTHEGSTVEKTVAPTECS
notes: IgG4-PAA, Fab arm exchange; also called IAPB63 x CD3B219; IL1RAP x CD3
Consider B2, for which the binding result in [4] was “no binding (tested: 100 µg/mL)”. Moreover, in the experiment with human FcRn, the “IC50 (read off the curve)” value was ~200 nM. In experiment [5], the “Average EC50, SKNO-1 cytotoxicity in whole blood, 24 hour” value came out at 2.92 nM; the “Average EC50, SKNO-1 cytotoxicity in whole blood, 48 hour” value came out at 0.804 nM; the “EC50, SKNO-1 cytotoxicity in whole blood, donor 00201, 24 hour” value was 8.62 nM; the “EC50, SKNO-1 cytotoxicity in whole blood, donor 00201, 48 hour” value stood at 0.704 nM. In addition, in [5], the “EC50, SKNO-1 cytotoxicity in whole blood, donor 00263, 24 hour” value is 0.4 nM; the “EC50, SKNO-1 cytotoxicity in whole blood, donor 00263, 48 hour” value came to 0.58 nM; the “EC50, SKNO-1 cytotoxicity in whole blood, donor 27050, 48 hour” value was 2.04 nM; the “EC50, SKNO-1 cytotoxicity in whole blood, donor 27060, 24 hour” value turned out to be 2.5 nM. Also, in experiment [5], the “EC50, SKNO-1 cytotoxicity in whole blood, donor 27060, 48 hour” value stood at 0.516 nM; the “EC50, SKNO-1 cytotoxicity in whole blood, donor 27067, 24 hour” value stood at 1.11 nM; the “EC50, SKNO-1 cytotoxicity in whole blood, donor 27067, 48 hour” value came out at 0.337 nM; the “EC50, SKNO-1 cytotoxicity in whole blood, donor 32771, 24 hour” value came to 1.94 nM. In [5], the “EC50, SKNO-1 cytotoxicity in whole blood, donor 32782, 48 hour” value is 0.65 nM. The “EC50 (read off the curve)” value in [6] is ~1 µg/mL. Besides, the “IC50 (read off the curve)” value with human FcγRI was ~90 nM. Moreover, the binding result in experiment [7] is reported as “no binding (tested: 100 µg/mL)”. The “EC50 (read off the curve)” value in experiment [8] was ~1 µg/mL.
